This note sets out measurements from PMC6125358, “Mapping the Interface of a GPCR Dimer: A Structural Model of the A2A Adenosine and D2 Dopamine Receptor Heteromer” (Frontiers in Pharmacology, 2018).

Sequences and labels used below:
B1: 3xHA-D2R^GFP2 (human D2 dopamine receptor, wild type) [human] / human adenosine receptor fused to Renilla luciferase (A2AR^Rluc) [human] (parent)
chain 1: MPIMGSSVYITVELAIAVLAILGNVLVCWAVWLNSNLQNVTNYFVVSLAAADIAVGVLAIPFAITISTGFCAACHGCLFIACFVLVLTQSSIFSLLAIAIDRYIAIRIPLRYNGLVTGTRAKGIIAICWVLSFAIGLTPMLGWNNCGQPKEGKNHSQGCGEGQVACLFEDVVPMNYMVYFNFFACVLVPLLLMLGVYLRIFLAARRQLKQMESQPLPGERARSTLQKEVHAAKSLAIIVGLFALCWLPLHIINCFTFFCPDCSHAPLWLMYLAIVLSHTNSVVNPFIYAYRIREFRQTFRKIIRSHVLRQQEPFKAAGTSARVLAAHGSDGEQVSLRLNGHPPGVWANGSAPHPERRPNGYALGLVSGGSAQESQGNTGLPDVELLSHELKGVCPEPPGLDDPLAQDGAGVS
chain 2: MDPLNLSWYDDDLERQNWSRPFNGSDGKADRPHYNYYATLLTLLIAVIVFGNVLVCMAVSREKALQTTTNYLIVSLAVADLLVATLVMPWVVYLEVVGEWKFSRIHCDIFVTLDVMMCTASILNLCAISIDRYTAVAMPMLYNTRYSSKRRVTVMISIVWVLSFTISCPLLFGLNNADQNECIIANPAFVVYSSIVSFYVPFIVTLLVYIKIYIVLRRRRKRVNTKRSSRAFRAHLRAPLKGNCTHPEDMKLCTVIMKSNGSFPVNRRRVEAARRAQELEMEMLSSTSPPERTRYSPIPPSHHQLTLPDPSHHGLHSTPDSPAKPEKNGHAKDHPKIAKIFEIQTMPNGKTRTSLKTMSRRKLSQQKEKKATQMLAIVLGVFIICWLPFFITHILNIHCDCNIPPVLYSAFTWLGYVNSAVNPIIYTTFNIEFRKAFLKILHC

In the experiment the parent is B1. Nature of the experiment: BRET2 saturation assay. As to conditions: with human A2A adenosine receptor fused to Renilla luciferase (A2AR^Rluc) [human]; height of the fitted saturation curve read at x = 6 AU (GFP2-GFP2_0)/Rluc; co-expressed in cells; DeepBlueC substrate, 10 min incubation; read off a plot.
As to chain 2 Y192A, the response (netBRET2 ratio) was found to be 0.056.
For chain 2 L207A K211A the value was 0.048.
